# Data reported in article PMC9237092, “Structural basis for defective membrane targeting of mutant enzyme in human VLCAD deficiency” (Nature Communications, 2022).
# B1: full-length human VLCAD (very long-chain acyl-CoA dehydrogenase) lacking its cleavable leader sequence, wild type (enzyme, UniProt P49748 41-655, looked up)
# chain: AGGAAQLALDKSDSHPSDALTRKKPAKAESKSFAVGMFKGQLTTDQVFPYPSVLNEEQTQFLKELVEPVSRFFEEVNDPAKNDALEMVEETTWQGLKELGAFGLQVPSELGGVGLCNTQYARLVEIVGMHDLGVGITLGAHQSIGFKGILLFGTKAQKEKYLPKLASGETVAAFCLTEPSSGSDAASIRTSAVPSPCGKYYTLNGSKLWISNGGLADIFTVFAKTPVTDPATGAVKEKITAFVVERGFGGITHGPPEKKMGIKASNTAEVFFDGVRVPSENVLGEVGSGFKVAMHILNNGRFGMAAALAGTMRGIIAKAVDHATNRTQFGEKIHNFGLIQEKLARMVMLQYVTESMAYMVSANMDQGATDFQIEAAISKIFGSEAAWKVTDECIQIMGGMGFMKEPGVERVLRDLRIFRIFEGTNDILRLFVALQGCMDKGKELSGLGSALKNPFGNAGLLLGEAGKQLRRRAGLGSGLSLSGLVHPELSRSGELAVRALEQFATVVEAKLIKHKKGIVNEQFLLQRLADGAIDLYAMVVVLSRASRSLSEGHPTAQHEKMLCDTWCIEAAARIREGMAALQSDPWQQELYRNFKSISKALVERGGVVTSNPLGF
# notes: mature protein aa 1-615. numbers count on: the mature protein; pET19b vector; also called wild-type VLCAD; full-length VLCAD; source: E. coli BL21(DE3), purified (Ni-NTA, SEC)
# B2: full-length human VLCAD A450P (enzyme, UniProt P49748 41-655, looked up)
# chain: AGGAAQLALDKSDSHPSDALTRKKPAKAESKSFAVGMFKGQLTTDQVFPYPSVLNEEQTQFLKELVEPVSRFFEEVNDPAKNDALEMVEETTWQGLKELGAFGLQVPSELGGVGLCNTQYARLVEIVGMHDLGVGITLGAHQSIGFKGILLFGTKAQKEKYLPKLASGETVAAFCLTEPSSGSDAASIRTSAVPSPCGKYYTLNGSKLWISNGGLADIFTVFAKTPVTDPATGAVKEKITAFVVERGFGGITHGPPEKKMGIKASNTAEVFFDGVRVPSENVLGEVGSGFKVAMHILNNGRFGMAAALAGTMRGIIAKAVDHATNRTQFGEKIHNFGLIQEKLARMVMLQYVTESMAYMVSANMDQGATDFQIEAAISKIFGSEAAWKVTDECIQIMGGMGFMKEPGVERVLRDLRIFRIFEGTNDILRLFVALQGCMDKGKELSGLGSPLKNPFGNAGLLLGEAGKQLRRRAGLGSGLSLSGLVHPELSRSGELAVRALEQFATVVEAKLIKHKKGIVNEQFLLQRLADGAIDLYAMVVVLSRASRSLSEGHPTAQHEKMLCDTWCIEAAARIREGMAALQSDPWQQELYRNFKSISKALVERGGVVTSNPLGF
# notes: Mutation observed in patients with VLCAD deficiency; made by site-directed mutagenesis of the pET19b construct; also called A450P variant; source: E. coli BL21(DE3), purified (Ni-NTA, SEC)
# B3: full-length human VLCAD L462P (enzyme, UniProt P49748 41-655, looked up)
# chain: AGGAAQLALDKSDSHPSDALTRKKPAKAESKSFAVGMFKGQLTTDQVFPYPSVLNEEQTQFLKELVEPVSRFFEEVNDPAKNDALEMVEETTWQGLKELGAFGLQVPSELGGVGLCNTQYARLVEIVGMHDLGVGITLGAHQSIGFKGILLFGTKAQKEKYLPKLASGETVAAFCLTEPSSGSDAASIRTSAVPSPCGKYYTLNGSKLWISNGGLADIFTVFAKTPVTDPATGAVKEKITAFVVERGFGGITHGPPEKKMGIKASNTAEVFFDGVRVPSENVLGEVGSGFKVAMHILNNGRFGMAAALAGTMRGIIAKAVDHATNRTQFGEKIHNFGLIQEKLARMVMLQYVTESMAYMVSANMDQGATDFQIEAAISKIFGSEAAWKVTDECIQIMGGMGFMKEPGVERVLRDLRIFRIFEGTNDILRLFVALQGCMDKGKELSGLGSALKNPFGNAGLLPGEAGKQLRRRAGLGSGLSLSGLVHPELSRSGELAVRALEQFATVVEAKLIKHKKGIVNEQFLLQRLADGAIDLYAMVVVLSRASRSLSEGHPTAQHEKMLCDTWCIEAAARIREGMAALQSDPWQQELYRNFKSISKALVERGGVVTSNPLGF
# notes: Mutation observed in patients with VLCAD deficiency; made by site-directed mutagenesis of the pET19b construct; also called L462P mutant; source: E. coli BL21(DE3), purified (Ni-NTA, SEC)
# Target: the molecule itself
# Assay: SEC; Superdex 200 10/300 GL, 4 °C, 250 mM NaCl, 50 mM Tris, pH 8.0; purified VLCAD proteins; peak at ~150 kDa
row,Protein,stoichiometry N
1,B1,2
2,B2,2
3,B3,2
